US20230012273A1 (Boehringer Ingelheim, published 2023)
Read-outs that look alike come from different tables or passages of the source. Values belong to the binder of their own block, whether it stands above or below them.

What was measured:
[1] = target: full-length human SIRPβ1 D→H on Expi-CHO cells (human, UniProt O00241 30-398); assay: flow cytometry, Expi-CHO cells
Protocol: These cells are blocked with donkey IgG and incubated on ice with increasing concentrations of antibodies for 60 minutes, washed and stained with AF647-conjugated donkey F(ab′)₂ anti-human IgG antibodies. Stained cells are washed, fixed, and analyzed by flow cytometry. Median fluorescent intensity is determined and used as a measure of antibody binding.

[2] = target: T1, human SIRPαV1 extracellular domain + His-tag (NP_542970.1) (human, UniProt P78324 31-373); assay: SPR, Ab captured, ECD-His analyte
T1 construct: also called hSIRPαV1; HuSIRPαV1
T1 sequence (P78324 other isoform, or with tags, fused parts or gaps): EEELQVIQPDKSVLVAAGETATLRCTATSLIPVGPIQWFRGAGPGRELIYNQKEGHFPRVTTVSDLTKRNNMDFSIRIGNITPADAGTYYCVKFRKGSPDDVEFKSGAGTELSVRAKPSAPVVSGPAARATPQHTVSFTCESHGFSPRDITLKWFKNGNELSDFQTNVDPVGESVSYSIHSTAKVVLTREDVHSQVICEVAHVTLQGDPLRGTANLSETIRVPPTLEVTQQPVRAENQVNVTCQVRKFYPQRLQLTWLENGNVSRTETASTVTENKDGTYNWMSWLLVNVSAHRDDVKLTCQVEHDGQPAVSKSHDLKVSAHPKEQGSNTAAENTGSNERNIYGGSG
Procedure, shortened: (§1)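 In HBS-EP+ (1×), captured antibodies are exposed to a twofold concentration series of SIRP extracellular domain carrying a His tag, using 300 s contact at 30 μl/min and a 600 s dissociation window.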

[3] = target: T2, human SIRPαV2 extracellular domain + His-tag (CAA71403.1) (human, UniProt P78324 31-373); assay: SPR, Ab captured, ECD-His analyte
T2 construct: also called hSIRPαV2; HuSIRPαV2
T2 sequence (P78324 other isoform, or with tags, fused parts or gaps): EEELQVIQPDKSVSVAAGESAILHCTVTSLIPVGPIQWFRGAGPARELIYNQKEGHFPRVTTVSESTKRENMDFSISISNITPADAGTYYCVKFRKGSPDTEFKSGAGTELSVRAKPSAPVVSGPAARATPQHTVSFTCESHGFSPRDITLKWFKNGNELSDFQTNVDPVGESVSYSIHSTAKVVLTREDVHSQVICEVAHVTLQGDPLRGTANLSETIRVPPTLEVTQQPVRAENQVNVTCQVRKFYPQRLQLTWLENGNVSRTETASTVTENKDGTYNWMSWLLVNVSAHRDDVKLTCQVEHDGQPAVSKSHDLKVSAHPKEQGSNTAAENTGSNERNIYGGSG
Procedure, shortened: as §1

[4] = target: T3, human SIRPβ1 extracellular domain + His-tag (NP_006056.2) (human, UniProt O00241 30-371); assay: SPR, Ab captured, ECD-His analyte
T3 construct: also called hSIRPβ1; HuSIRPβ1
T3 sequence (O00241 other isoform, or with tags, fused parts or gaps): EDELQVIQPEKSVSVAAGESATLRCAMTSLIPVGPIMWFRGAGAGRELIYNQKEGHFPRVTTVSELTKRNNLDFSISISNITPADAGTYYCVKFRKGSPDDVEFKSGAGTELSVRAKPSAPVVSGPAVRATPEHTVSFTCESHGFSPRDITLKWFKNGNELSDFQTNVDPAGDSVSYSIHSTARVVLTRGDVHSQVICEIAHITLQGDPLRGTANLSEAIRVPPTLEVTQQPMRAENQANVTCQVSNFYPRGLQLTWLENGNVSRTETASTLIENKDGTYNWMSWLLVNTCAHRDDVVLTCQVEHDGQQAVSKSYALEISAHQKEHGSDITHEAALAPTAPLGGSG
Procedure, shortened: as §1

[5] = target: T4, human SIRPβL/SIRPβ1v3 extracellular domain + His-tag (NP_001129316.1) (human, UniProt Q5TFQ8 30-371); assay: SPR, Ab captured, ECD-His analyte
T4 construct: also called hSIRPβ1v3; HuSIRPβ1v3
T4 sequence (Q5TFQ8 other isoform, or with tags, fused parts or gaps): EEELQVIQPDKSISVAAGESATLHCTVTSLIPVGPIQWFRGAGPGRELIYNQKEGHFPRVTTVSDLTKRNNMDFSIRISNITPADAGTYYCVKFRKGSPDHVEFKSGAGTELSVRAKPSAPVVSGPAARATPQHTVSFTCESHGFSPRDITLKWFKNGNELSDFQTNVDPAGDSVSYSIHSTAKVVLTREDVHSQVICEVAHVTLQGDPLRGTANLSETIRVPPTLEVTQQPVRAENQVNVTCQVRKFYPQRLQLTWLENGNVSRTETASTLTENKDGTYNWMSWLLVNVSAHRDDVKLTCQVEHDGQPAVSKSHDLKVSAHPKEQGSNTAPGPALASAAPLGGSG
Procedure, shortened: as §1

[6] = target: T5, human SIRPγ extracellular domain + His-tag (NP_061026.2) (human, UniProt Q9P1W8 29-360); assay: SPR, Ab captured, ECD-His analyte
T5 construct: also called hSIRPγ; HuSIRPγ
T5 sequence (Q9P1W8 29-360): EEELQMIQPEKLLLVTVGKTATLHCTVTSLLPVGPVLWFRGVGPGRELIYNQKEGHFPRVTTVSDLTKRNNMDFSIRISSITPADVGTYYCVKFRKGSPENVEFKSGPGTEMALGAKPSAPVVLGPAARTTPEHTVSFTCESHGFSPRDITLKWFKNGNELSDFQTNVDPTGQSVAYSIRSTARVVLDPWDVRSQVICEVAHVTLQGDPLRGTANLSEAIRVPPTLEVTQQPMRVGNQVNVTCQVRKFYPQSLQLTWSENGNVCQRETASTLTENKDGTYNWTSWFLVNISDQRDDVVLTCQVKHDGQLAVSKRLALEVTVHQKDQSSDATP
Procedure, shortened: as §1

[7] = target: T6, mouse SIRPα extracellular domain + His-tag (NP_031573) (mouse, UniProt P97797 32-373); assay: SPR, Ab captured, ECD-His analyte
T6 chain: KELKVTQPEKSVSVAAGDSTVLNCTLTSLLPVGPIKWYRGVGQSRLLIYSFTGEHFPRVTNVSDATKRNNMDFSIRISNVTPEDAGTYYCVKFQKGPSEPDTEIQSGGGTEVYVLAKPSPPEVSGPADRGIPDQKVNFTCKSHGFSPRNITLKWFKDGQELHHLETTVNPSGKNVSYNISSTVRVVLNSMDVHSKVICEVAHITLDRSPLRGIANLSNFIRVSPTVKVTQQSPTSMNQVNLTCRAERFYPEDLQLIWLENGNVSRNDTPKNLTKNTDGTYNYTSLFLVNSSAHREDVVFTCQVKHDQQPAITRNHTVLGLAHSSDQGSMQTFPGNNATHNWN
Protocol: The binding affinity of anti-SIRPα antibodies to the various SIRPα analytes is determined by surface plasmon resonance (SPR) using a ProteOn XPR36 (Bio-Rad). The running buffer for this experiment and all dilutions (except where stated) are done in 1×HBS-EP+. […] The sensorchip is deactivated with 1M ethanolamine HCl for 420 sec at a flowrate of 10 μl/min.
The analyte is injected over the captured antibody for 300 sec at a flowrate of 30 μl/min. The dissociation is done for 600 sec. Two-fold serial dilutions of each SIRP protein (Extracellular Domain+His-Tag) are injected as analyte with the highest concentrations indicated in table 36 below.

[8] = target: T1, human SIRPαV1 extracellular domain + …; assay: SPR, Ab captured, ECD-His analyte; remark: listed apart in the source
Procedure, shortened: as §1

[9] = target: T2, human SIRPαV2 extracellular domain + …; assay: SPR, Ab captured, ECD-His analyte; remark: listed apart in the source
Procedure, shortened: as §1

[10] = target: T3, human SIRPβ1 extracellular domain + …; assay: SPR, Ab captured, ECD-His analyte; remark: listed apart in the source
Procedure, shortened: as §1

[11] = target: T4, human SIRPβL/SIRPβ1v3 extracellular …; assay: SPR, Ab captured, ECD-His analyte; remark: listed apart in the source
Procedure, shortened: as §1

[12] = target: T7, full-length human SIRPγ (NP_061026.2) on cells (human, UniProt Q9P1W8 29-387); assay: flow cytometry, primary human CD3+ T cells
T7 construct: on CHO and Expi-CHO cells; endogenous on primary human CD3+ T cells; also called γ WT
Protocol: (§2) Antibody binding to primary human T cells expressing endogenous SIRPγ is evaluated by flow cytometry. Human peripheral blood mononuclear cells (PBMCs) are blocked with donkey IgG and incubated on ice with increasing concentrations of antibody for 60 minutes, washed and stained with AF647-conjugated donkey F(ab′)₂ anti-human IgG secondary reagent. […] Cells are washed, fixed, and analyzed by flow cytometry. Median fluorescent intensity of CD3+ gated population is determined and used as a measure of antibody binding.
T7 sequence (Q9P1W8 29-387): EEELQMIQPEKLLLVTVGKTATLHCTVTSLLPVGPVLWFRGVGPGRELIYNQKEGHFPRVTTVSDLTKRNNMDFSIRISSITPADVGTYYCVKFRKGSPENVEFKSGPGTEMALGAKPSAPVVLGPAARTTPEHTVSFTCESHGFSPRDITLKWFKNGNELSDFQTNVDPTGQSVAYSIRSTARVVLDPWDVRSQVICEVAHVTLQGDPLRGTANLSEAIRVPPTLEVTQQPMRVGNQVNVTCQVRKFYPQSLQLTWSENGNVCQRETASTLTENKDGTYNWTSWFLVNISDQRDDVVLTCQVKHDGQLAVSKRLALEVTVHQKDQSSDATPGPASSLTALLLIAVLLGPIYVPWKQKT

[13] = target: T8, full-length human SIRPαV1 (NP_542970.1) on cells (human, UniProt P78324 31-504); assay: flow cytometry, CD14+ monocytes V1V1
T8 construct: one molecule for CHO-K1 and Expi-CHO transfectants (NP_542970.1) and for endogenous V1 on U-937 cells and on CD14+ monocytes of V1/V1 donors; also called CHO-hSIRPαV1; αV1 WT
T8 sequence (P78324 31-504): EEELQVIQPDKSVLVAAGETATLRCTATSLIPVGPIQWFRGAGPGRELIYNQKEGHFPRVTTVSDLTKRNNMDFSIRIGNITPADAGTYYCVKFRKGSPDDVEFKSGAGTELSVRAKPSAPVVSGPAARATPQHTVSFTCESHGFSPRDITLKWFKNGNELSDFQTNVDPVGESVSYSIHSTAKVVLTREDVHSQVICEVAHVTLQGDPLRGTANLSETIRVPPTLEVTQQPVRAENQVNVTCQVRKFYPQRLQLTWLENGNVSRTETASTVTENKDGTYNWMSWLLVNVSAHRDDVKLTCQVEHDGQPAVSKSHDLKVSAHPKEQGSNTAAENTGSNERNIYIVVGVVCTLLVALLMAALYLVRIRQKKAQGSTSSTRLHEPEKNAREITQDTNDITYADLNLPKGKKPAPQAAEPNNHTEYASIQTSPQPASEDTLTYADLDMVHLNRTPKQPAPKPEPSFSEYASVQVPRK
Protocol: as §2, with “human” for “human T”, “expressing SIRPα” for “expressing endogenous SIRPγ”, “(PBMCs) from donors genotyped as homozygous for the SIRPα V1 allele, V2 allele, or heterozygous for both alleles” for “(PBMCs)”, “of the CD14+” for “of CD3+ gated”, “population was” for “population is”

[14] = target: T9, full-length human SIRPαV2 (CAA71403.1) on cells (human, UniProt P78324 31-504); assay: flow cytometry, CD14+ monocytes V2V2
T9 construct: one molecule for CHO-K1 and Expi-CHO transfectants (CAA71403.1) and for endogenous V2 on THP-1 cells and on CD14+ monocytes of V2/V2 donors; also called CHO-hSIRPαV2; αV2 WT
T9 sequence (P78324 other isoform, or with tags, fused parts or gaps): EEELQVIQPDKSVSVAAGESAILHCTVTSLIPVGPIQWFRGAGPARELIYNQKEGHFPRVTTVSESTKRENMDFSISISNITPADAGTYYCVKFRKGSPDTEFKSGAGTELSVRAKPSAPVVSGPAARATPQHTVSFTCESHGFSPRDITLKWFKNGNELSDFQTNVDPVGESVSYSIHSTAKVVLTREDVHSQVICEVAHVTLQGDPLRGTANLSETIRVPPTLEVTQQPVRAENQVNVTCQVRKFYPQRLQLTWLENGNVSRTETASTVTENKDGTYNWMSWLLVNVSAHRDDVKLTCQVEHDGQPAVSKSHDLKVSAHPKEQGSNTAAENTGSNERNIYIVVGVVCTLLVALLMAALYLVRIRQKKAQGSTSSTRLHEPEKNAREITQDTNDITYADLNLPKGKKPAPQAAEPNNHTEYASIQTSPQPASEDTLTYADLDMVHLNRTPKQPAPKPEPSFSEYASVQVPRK
Protocol: as §2, with “human” for “human T”, “expressing SIRPα” for “expressing endogenous SIRPγ”, “(PBMCs) from donors genotyped as homozygous for the SIRPα V1 allele, V2 allele, or heterozygous for both alleles” for “(PBMCs)”, “of the CD14+” for “of CD3+ gated”, “population was” for “population is”

[15] = target: T10, full-length human SIRPγ (NP_061026.2) on cells (human, UniProt Q9P1W8 29-387); assay: flow cytometry, primary CD3+ T cells
T10 construct: also called CHO-hSIRPγ; γ WT
Protocol: as §2
T10 sequence (Q9P1W8 29-387): as the sequence (Q9P1W8 29-387) above

[16] = target: T11, full-length human SIRPβ1 (NP_006056.2) on cells (human, UniProt O00241 30-398); assay: flow cytometry, U937 SIRPα-KO transfectants
T11 construct: also called β1 WT
T11 sequence (O00241 30-398): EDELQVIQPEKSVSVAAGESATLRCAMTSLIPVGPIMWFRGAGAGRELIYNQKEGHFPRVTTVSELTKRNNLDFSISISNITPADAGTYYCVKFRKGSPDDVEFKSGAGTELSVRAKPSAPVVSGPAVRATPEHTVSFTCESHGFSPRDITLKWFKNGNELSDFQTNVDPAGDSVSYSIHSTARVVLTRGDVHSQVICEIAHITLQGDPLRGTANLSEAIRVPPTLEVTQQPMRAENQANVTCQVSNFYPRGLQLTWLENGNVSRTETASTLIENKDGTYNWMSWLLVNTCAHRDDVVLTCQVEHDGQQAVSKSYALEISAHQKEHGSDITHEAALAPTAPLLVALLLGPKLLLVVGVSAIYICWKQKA
Protocol: (§3) Antibody binding to cells expressing full-length human SIRPβ1 (NP_006056.2) and SIRPβL (NP_001129316.1) is evaluated by flow cytometry. SIRPβ1- or SIRPβL-expressing U937^{SIRPα KO} cells are blocked with donkey IgG and incubated on ice with increasing concentrations of antibodies for 60 minutes, washed and stained with AF647-conjugated donkey F(ab′)₂ anti-human IgG secondary reagent. Cells are washed, fixed, and analyzed by flow cytometry. Median fluorescent intensity is determined and used as a measure of antibody binding.

[17] = target: T12, full-length human SIRPβL (NP_001129316.1) on cells (human, UniProt Q5TFQ8 30-398); assay: flow cytometry, U937 SIRPα-KO transfectants
T12 construct: one molecule for U937 SIRPα-KO transfectants (NP_001129316.1) and Expi-CHO transfectants (Q5TFQ8); also called SIRPβ1v3; βL WT
T12 sequence (Q5TFQ8 30-398): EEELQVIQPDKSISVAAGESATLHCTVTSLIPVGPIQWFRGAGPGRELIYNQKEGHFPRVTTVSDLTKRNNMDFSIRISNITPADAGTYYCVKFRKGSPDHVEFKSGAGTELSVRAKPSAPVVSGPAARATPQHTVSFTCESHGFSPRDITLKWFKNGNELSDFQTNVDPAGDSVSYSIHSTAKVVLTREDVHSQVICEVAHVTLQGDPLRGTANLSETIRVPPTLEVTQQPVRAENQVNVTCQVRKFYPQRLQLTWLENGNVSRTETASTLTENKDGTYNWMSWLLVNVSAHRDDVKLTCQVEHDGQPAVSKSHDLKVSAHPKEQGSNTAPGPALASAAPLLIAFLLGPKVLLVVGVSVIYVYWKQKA
Protocol: as §3

[18] = target: T8, full-length human SIRPαV1 (NP_542970.1) …; assay: flow cytometry, competition with CD47 tetramer, monocytes V1V1
Protocol: (§4) Cells are washed, fixed, and analyzed by flow cytometry. Median fluorescent intensity of CD14+gated population is determined and used as a measure of CD47 binding.

[19] = target: T9, full-length human SIRPαV2 (CAA71403.1) …; assay: flow cytometry, competition with CD47 tetramer, monocytes V2V2
Protocol: as §4

[20] = target: ED-tagged human SIRPα V1 receptor on Jurkat signaling reporter cells (human, UniProt P78324 31-504); assay: cell-based or functional assay
[21] = target: ED-tagged human SIRPα V2 receptor on Jurkat signaling reporter cells (human, UniProt P78324 31-504); assay: cell-based or functional assay
[22] = target: T12, full-length human SIRPβL …; assay: flow cytometry, U937 SIRPα-KO cells expressing full-length human SIRPβL
Protocol: as §3

Sequence of full-length human SIRPβ1 D→H on Expi-CHO cells (O00241 30-398 D130H): as the sequence (O00241 30-398) above, with D101H counted along it

B1: Antibody E (antibody, human IgG1, kappa, L234A L235A)
heavy: not shown
light: DIVMTQSPLSLPVTPGEPASISCKSSQSLLYSNGYNYLDWYLQRPGQSPQLLIYLGSNRASGVPDRFSGSGSGTDFTLKISRVEAEDVGVFYCMQALQTPLTFGGGTKVEIKRTVAAPSVFIFPPSDEQLKSGTASVVCLLNNFYPREAKVQWKVDNALQSGNSQESVTEQDSKDSTYSLSSTLTLSKADYEKHKVYACEVTHQGLSSPVTKSFNRGEC
binding result [1]: no binding
Kd [2]: 0.456 nM
Kd [3]: 0.42 nM
Kd [4]: 1230 nM
Kd [5]: 1.16 nM
binding result [6]: no binding (tested: 1000 nM)
binding result [7]: no binding
Kd [8]: 0.425 nM
Kd [9]: 0.33 nM
Kd [10]: 771 nM
Kd [11]: 0.81 nM

B3: anti-SIRPα antibody SIRP AB11 (antibody, V domains shown)
VH: QVQLVQSGAEVKKPGASVKVSCKASGYTFRGYGISWVRQAPGQGLEWMGWISAYGGETNYAQKLQGRVTMTTDTSTSTAYMELRSLRSDDTAVYYCAREAGSSWYDFDLWGRGTLVTVSS
VL: DIQMTQSPSSVSASVGDRVTITCRASQGISSWLAWYQQKPGKAPKLLIYAASNLQSGVPSRFSGSGSGTDFTLTISSLQPEDFATYYCQQGASFPITFGGGTKVEIKR
EC50 [13]: 0.1 nM
EC50 [14]: 0.1 nM
EC50 [15]: 0.02 nM
EC50 [16]: 0.1 nM
EC50 [17]: 0.2 nM
IC50 [18]: 0.02 nM
IC50 [19]: 0.05 nM

The next lines start with the values.

Kd [2]: 0.497 nM
Kd [3]: 0.465 nM
Kd [4]: 1270 nM
Kd [5]: 1.27 nM
binding result [6]: no binding (tested: 1000 nM)
binding result [7]: no binding
binding result [12]: no binding
B2: Antibody G (antibody, human IgG4 S228P, kappa)
heavy: not shown
light: B1 light

Blockade of Cellular CD47-Mediated SIRPα Signaling; IC50 [20]: 0.04 nM
Blockade of Cellular CD47-Mediated SIRPα Signaling; IC50 [21]: 0.02 nM
binding result [15]: no binding
EC50 [16]: 0.3 nM
binding result [22]: no binding (tested: about 200 nM)
B4: Antibody A11 (antibody, human IgG4 S228P, kappa)
heavy: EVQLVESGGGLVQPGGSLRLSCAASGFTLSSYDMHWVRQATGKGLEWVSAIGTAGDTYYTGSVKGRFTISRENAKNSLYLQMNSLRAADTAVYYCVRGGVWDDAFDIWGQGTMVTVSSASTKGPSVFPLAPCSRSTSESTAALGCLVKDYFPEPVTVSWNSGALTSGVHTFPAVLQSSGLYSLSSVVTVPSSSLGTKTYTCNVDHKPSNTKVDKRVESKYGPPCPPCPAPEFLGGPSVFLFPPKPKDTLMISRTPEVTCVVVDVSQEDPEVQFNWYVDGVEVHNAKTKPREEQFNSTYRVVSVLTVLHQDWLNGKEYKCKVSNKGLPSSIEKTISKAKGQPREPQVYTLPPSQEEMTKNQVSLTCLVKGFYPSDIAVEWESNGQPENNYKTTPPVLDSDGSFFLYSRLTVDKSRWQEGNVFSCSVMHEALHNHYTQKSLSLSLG
light: DIQMTQSPSSLSASVGDRVTITCRASQDINNYLAWFQQKPGKAPKSLIYTASSLHSGVPSKFSGSGSGTDFTLTISSLQPEDFATYYCQQYVSYPYTFGQGTKLEIKRTVAAPSVFIFPPSDEQLKSGTASVVCLLNNFYPREAKVQWKVDNALQSGNSQESVTEQDSKDSTYSLSSTLTLSKADYEKHKVYACEVTHQGLSSPVTKSFNRGEC
